# Reference: patent US10918733B2, “Lipopeptide- and lipoprotein-conjugates and its use” (HELMHOLTZ-ZENTRUM FUER INFEKTIONSFORSCHUNG GMBH, priority 2009, dated 2021)
# How the values were obtained:
# [1] = system: IFNgamma, IL-2, IL-4 and IL-17-secreting cells; assay: ELISPOT of cytokine-secreting spleen cells in immunized mice; format: in vivo
# Procedure: (§1) Experimental protocol: Spleens were removed and pooled for analysis of cellular immune responses. Cells were grown in RPMI 1640 supplemented with 10% fetal calf serum, 100 U/ml of penicillin, 50 μg/ml of streptomycin, 5×10^−5 M 2-mercaptoethanol and 1 mM L-glutamine (GIBCO BRL, Karlsruhe, Germany) and maintained at 37° C. in a humidified 5% CO2 atmosphere. Lymph node and spleen cell suspensions were adjusted to 5×10^6 cells/ml in complete medium, cells were seeded with 100 μl per well in a flat-bottomed 96-well microtiter plate (Nunc) and plates were incubated for 4 days in the presence of different concentrations of soluble Ova. Each concentration was tested in triplicates.
# FIG. 7: Detection of IFNgamma, IL-2, IL-4 and IL-17-secreting cells in immunized mice. Spleen cells (1×10^6 and 5×10^5 cells/well) recovered from animals vaccinated by the (A) i.n. or (B) s.c. route were incubated in the presence of either the Ova protein (for IL2 and IL4) or a Ova peptide (TPHPARIGL) encompassing its immunodominant MHC class I-restricted epitope (for IFNgamma). Then, the numbers of IFNgamma, IL2, IL4 and IL-17-producing cells was determined by ELISPOT. Results are presented as spot forming units per 10^6 cells, which were subtracted from the values obtained from non-stimulated cells. The SEM of triplicates is indicated by vertical lines.
# [2] = system: spleen cells; assay: Proliferation of spleen cells of immunized mice after in vitro restimulation with Ova, day 42 (Example 5); format: in vivo; conditions: s.c., restimulation with 0.1 up to 40 μg/ml Ova
# Procedure: as §1, with “of” for “of soluble”, “triplicates. During the final 18 h of culture, 1 μCi of [^3H]thymidine (Amersham International, Freiburg, Germany) was added to each well. Cells were then harvested on paper filters (Filtermat A; Wallac, Freiburg, Germany) by using a cell harvester (Inotech, Wohlen, Switzerland), and the amount of incorporated [^3H]thymidine into the DNA of proliferating cells was determined by a β-scintillation counter (Wallac 1450, Micro-Trilux). The results are expressed as the arithmetic mean of [^3H]thymidine uptake in cpm.” for “triplicates.”
# T cell-mediated immune responses were investigated at day 42 by measuring the proliferation of cells recovered from spleens after in vitro restimulation with Ova. […]
# [3] = system: Ova-specific CD4+ T cells; assay: Proliferation of CFSE-stained T cells co-cultured with treated DC: CD4+ T cells; format: cell-based, OT2-tg mice; conditions: DC incubated with 10 μg/mL for 24 h, co-culture 4 days
# Procedure: T cell-mediated immune responses were investigated 96 h by measuring the proliferation of cells recovered from spleens after restimulation with BPPcysOva^mPEG. Non-Ag restimulated spleen cells were chosen as negative controls (FIG. 3). […] Taking into consideration that the BPPcysOva^mPEG has a promising effect on DC activation and maturation, next the capacity of these APC to stimulate the proliferation of antigen-specific CD8+ and CD4+ T cells was evaluated. Concentrations below 10^−8 M of BPPcysOva^mPEG were still able to induce an antigen specific proliferation of CD4+ T cells shown by the reduction of CFSE+ cells (FIGS. 4A-E).
# FIG. 4: Proliferation of CD8+, CD4+ and regulatory T cells. DC were generated from bone marrow of C57BL/6 mice and incubated with 10 μg/mL of B) Ova C) Ova peptides, D) Ova in the presence of BPPcysMPEG and E) BPPcysOva^mPEG alone (A) Control) for 24 h. The following day, CD4+ T cells from spleens of OT2-tg animals or CD8+ T cells of OT1-tg animals were isolated. After staining with CFSE, CD8+, CD4+ T cells were co-cultured with adjuvant-treated DCs for 4 days. The decrease of CFSE-FITC expression due to cell division of CD8+ or CD4+ T cells were analysed by flow cytometric analysis. One representative experiment out of two is shown.
# [4] = system: peritoneal macrophages from C3H/HeJ mice; assay: Nitrogen monoxide release assay (macrophage activation); format: cell-based; conditions: with rIFN-γ, 45-48 hours; compared with the known BPPcysMPEG
# Procedure: Experimental protocol: In brief, peritoneal macrophages from C3H/HeJ mice were used as the macrophage source. They were cultured in 96-well microtiter plates and stimulated simultaneously with rIFN-γ and a serial dilution of macrophage activator. Insofar as necessary, the macrophage activators were dissolved in 25 mM octylglucoside in the first dilution step and then diluted further with medium (i.e. R-Malp-2). After an incubating time of 45-48 hours, the nitrate was reduced with nitrate reductase and the starting substance nitrogen monoxide was determined, as the sum of nitrate and nitrite, using Griess' reagent. 1 unit (U)/ml is defined as the dilution at which half-maximal stimulation takes place.
# FIG. 2: Nitrogen monoxide release assay. Peritoneal macrophages from C3H/HeJ mice were used as the macrophage source. They were cultured in 96-well microtiter plates and stimulated simultaneously with rIFN-γ and a serial dilution of macrophage activator. After an incubating time of 45-48 hours, the nitrate was reduced with nitrate reductase and the starting substance nitrogen monoxide was determined, as the sum of nitrate and nitrite, using Griess' reagent.
molecule,measurement,setting,value
"Ova: model antigen ovalbumin (Sigma Chemie) (protein, UniProt P01012 2-386, looked up) Ovalbumin: GSIGAASMEFCFDVFKELKVHHANENIFYCPIAIMSALAMVYLGAKDSTRTQINKVVRFDKLPGFGDSIEAQCGTSVNVHSSLRDILNQITKPNDVYSFSLASRLYAEERYPILPEYLQCVKELYRGGLEPINFQTAADQARELINSWVESQTNGIIRNVLQPSSVDSQTAMVLVNAIVFKGLWEKAFKDEDTQAMPFRVTEQESKPVQMMYQIGLFRVASMASEKMKILELPFASGTMSMLVLLPDEVSGLEQLESIINFEKLTEWTSSNVMEERKIKVYLPRMKMEEKYNLTSVLMAMGITDVFSSSANLSGISSAESLKISQAVHAAHAEINEAGREVVGSAEAGVDAASVSEEFRADHPFLFCIKHIATNAVLFFGRCVSP",IFNγ producing cells after i.n. administration,[1],narrowly detectable
same,"proliferative response of spleen cells, s.c. immunization",[2],significant proliferative response
same,stimulation of proliferation of Ova-specific CD4+ T cells by treated DC,[3],weak stimulation
same,potential for activating macrophages (NO secretion),[4],no potency
